The text below walks through data of the supplement of paper PMC9170038.

The data set concerns K4 kissing-loop RNA reporter. The data set is described as follows: apparent KD of K4 kissing-loop reporter; higher = weaker reporter binding. Particulars: Eterna round: R107. The protocol:
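RNA-MaP round R107: designed RNA switches with theophylline, tryptophan, arginine or FMN aptamers are transcribed on-chip within common flanks. They are titrated with a labelled K4 kissing-loop RNA reporter in RNA-MaP buffer (100 mM Tris pH 7.5, 80 mM KCl, 4 mM MgCl2), without ligand or with the indicated ligand. Median apparent KD per design.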

Setting [1] is: input ligand: theophylline 20 uM.
[2] abbreviates: input ligand: tryptophan 2.4 mM.
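Also: bound reporter read as fluorescence of individual clusters on recovered sequencing chips by microscopy, with normalized cluster intensities fitted with a binding model.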

Take “GUACAUUGGAAACAAGAACAAAUAACCGAAGGAGCGCGUGAAAACGCAGGUAGGUCGCGGAAGCAGUGAUGUUGCAUUAGAGAUC [Same State Arginine A GF 16]”: the “apparent KD of K4 kissing-loop reporter” value (input ligand: FMN 200 uM) turned out to be 79.2 nM; the “apparent KD of K4 kissing-loop reporter” value (input ligand: arginine 13.2 mM) came to 103 nM; the “apparent KD of K4 kissing-loop reporter” value (input ligand: none) worked out at 61.1 nM; the “apparent KD of K4 kissing-loop reporter” value under setting [1] is 106 nM; the “apparent KD of K4 kissing-loop reporter” value under setting [2] was 60.3 nM.
For “GUAUCGCUAGGAGGAUAUUUCAAUUUGACUCUUUGAGUUUUUACGGAGUGAUGUUCCGUUUUACGGAAAGAAGGCCUAGUGAUAC [FMN B 15]” the same measures were 121 nM, 138 nM, 162 nM, 159 nM and 161 nM.
In the same order, the values of “GUAUGUGGAAACACGUACUUAUAUCCUAAGCAGGAUAUGCGGAAACGCAGAAGGGCUACCAACGAGUUUACCCAGUGAUGUUGGG [Ex FMN A 14]” are 275 nM, 260 nM, 320 nM, 288 nM and 296 nM.
For “GUCCAACCUGGAGGAUAUCUGCUGUCCAGUGAUGUUGGACACCUUAGUAAAGGCCGGGUAGCCCGCAGAGAAGGCCGGAGUUGCC [Isateron]” the same measures were 265 nM, 354 nM, 429 nM, 390 nM and 329 nM.
Consider “GUCCCAGUGAUGUUGGUAGGCGGGCGGGAUACCAGCGAAGACUCACGCCCUUGGCAGCCCACAUAUCCCGCGUAGGGAUUAGCCC [Same State - Theophylline A (Freestyle 22)]”, for which the “apparent KD of K4 kissing-loop reporter” value worked out at 652 nM (input ligand: FMN 200 uM); 437 nM (input ligand: arginine 13.2 mM); 656 nM (input ligand: none); 638 nM under setting [1]; 457 nM under setting [2].
For “GUCCGGAAGGCGGCUUCACGACCGUGGUGGGAGGAUAUGUCUAAGGACAGAAGGCCCAGUGAUGUUGGGCUUUAGGAGAGCCAUA [Ragele]” the same measures were 310 nM, 128 nM, 143 nM, 116 nM and 118 nM.
In the same order, the values of “GUCUGCGUCUCGGCCGCCACUCACUAGUGAUGUUAGUAAGGAGCGACUAGCGCAGUCCUGAAGAUGAGGACCGGGAGACGCAGGA [Exclusion Tryptophan B GF5]” are 141 nM, 110 nM, 119 nM, 91 nM and 358 nM.
In the same order, the values of “GUGAAGGAGCUGCAGUGAUGUUGCAGAAACUAGGAUAUCAGGAAACUGAGAAGGAGUCAACUCCUUCACCUAAAUACUGCAGAAA [KL-SSFMN-A23]” are 104 nM, 130 nM, 158 nM, 157 nM and 147 nM.
In the case of “GUGAGGAUCCGAAGGAGCGUCCGCAAUCCAGUGAUGUUGGGUGUUGGUUAUAUUUAACGAGGACAGGUAGGUCGCGGAUUUUCAA [Same State Arginie B GF 22]”, the “apparent KD of K4 kissing-loop reporter” value stood at 202 nM (input ligand: FMN 200 uM); 126 nM (input ligand: arginine 13.2 mM); 172 nM (input ligand: none); 193 nM under setting [1]; 159 nM under setting [2].
In the case of “GUGCGGCUAGUGAUGUUGGUUGCGUGGGAAGGAGCGCAGAAACAUGCAGGUAGGUCGCCCACACCUCUGAAAGGAGGUUAAUUCA [Diusdige]”, the “apparent KD of K4 kissing-loop reporter” value by setting is: (input ligand: FMN 200 uM) 200 nM; (input ligand: arginine 13.2 mM) 172 nM; (input ligand: none) 133 nM; under setting [1], 171 nM; under setting [2], 248 nM.
For “GUGGAAUUAUGAAAGUGGUUUUAUAAGGAAGGAGCGGCCGAAAGGCCAGGUAGGUCGCCUAUUGACAGUGAUGUUGUUAUAUGGA [#13]” the same measures were 105 nM, 180 nM, 103 nM, 168 nM and 75 nM.
For “GUUACGCAUGGAAGGAGCGCACUCCGAUUGGGCGACGCAGUGAUGUUGUGGUUCGUUCGAAUGCAGGUAGGUCGCCAUGUGUAAC [Ex Arginine B K4 21]” the same measures were 186 nM, 172 nM, 176 nM, 141 nM and 192 nM.
For “GUUACGCAUGGAAGGAGCGCUCUCAGGCUUAAUAACACAGUGAUGUUGUGAAUUUGCCUAAAGCAGGUAGGUCGCCAUGUGUAAC [Ex Arginine B K4 9]” the same measures were 426 nM, 400 nM, 440 nM, 423 nM and 392 nM.
On to “GUUGUAUACUGAAGGAGCGAGUAGUGGAAACAUAAACUCAUUGCGAGUGAUGUUCGCGGUACUCAGGUAGGUCGCGGUAAUCGUA [Exclusion Arginine B Gf 11]”, for which the “apparent KD of K4 kissing-loop reporter” value runs as follows: (input ligand: FMN 200 uM) 820 nM; (input ligand: arginine 13.2 mM) 328 nM; (input ligand: none) 800 nM; under setting [1], 485 nM; under setting [2], 403 nM.
In the same order, the values of “UAAAAUAAAUAAUAGAGAGCGUUACUCGAAGGAGCGACGAAUUCGUCAGGUAGGUCGCGAGUGAUGUUCGCAAAUACGCUCUCAU [AK2 Exc Arginine A]” are 838 nM, 655 nM, 850 nM, 696 nM and 682 nM.
For “UAAAUAAUAAAACGAGUGAUGUUCGACGAUACCAGCCUCGAUAGAGGCCCUUGGCAGCGUAAAUGAUCACAAAGCCAAGGUAUAA [#01 K4 Theophylline A Exclusion]” the same measures were 165 nM, 183 nM, 159 nM, 199 nM and 138 nM.
For “UAAAUUAUCUGAAGGAGCGUGAAAUAAUAUUAAACAUAACAACCCAGUGAUGUUGGGUUAUCACAGGUAGGUCGCAGAUGUAGAU [Same State Arginie B GF 24]” the same measures were 95.6 nM, 113 nM, 98 nM, 118 nM and 85.5 nM.
Turning to “UAAGAGGACCACUGCAAAAGUCCUCGAAUACGAGGACCGGUACGGCCGCCACUCGAUAAUUUGCAGUGAUGUUGCAAGUAAGAAU [BrourdMod 4 - Jieux - Same State Tryptophan A]”, the “apparent KD of K4 kissing-loop reporter” value came to 120 nM (input ligand: FMN 200 uM); 158 nM (input ligand: arginine 13.2 mM); 130 nM (input ligand: none); 201 nM under setting [1]; 71.2 nM under setting [2].
In the same order, the values of “UAAUAAAUUCCAGCUAUAUCACUCUUCGAAGGAGCGGACGAAAGUCCAGGUAGGUCGCGAAGAGUGAUGUUCUUUGCGGCGCUGG [Omei KL Arginine A Exc A v5]” are 94.1 nM, 60.8 nM, 75.4 nM, 132 nM and 111 nM.
In the same order, the values of “UAAUAAAUUCUGGCAAUGUCACUCUUCGAAGGAGCGGACGAAAGUCCAGGUAGGUCGCGAAGAGUGAUGUUCUUCGCGGCGCCAG [Omei KL Arginine A Exc A v1]” are 299 nM, 235 nM, 235 nM, 304 nM and 268 nM.
As to “UAAUGUGGCACAGGAUAUACUGAUUGGAGUGAUGUUCCAAACAUGGACGUGAGACUUUUACAAGAAGUAGAAGGGUGUUAGAUAU [Exclusion FMN B GF 20]”, the “apparent KD of K4 kissing-loop reporter” value was found to be 241 nM (input ligand: FMN 200 uM); 298 nM (input ligand: arginine 13.2 mM); 304 nM (input ligand: none); 448 nM under setting [1]; 306 nM under setting [2].
